Patent US20080227711A1 (LABORATOIRES SERONO, published 2008)

B3: recombinant Evasin-3-6His purified from HEK293 cells (other)
chain: LVSTIESRTSGDGADNFDVVSCNKNCTSGQNECPEGCFCGLLGQNKKGHCYKIIGNLSGEPPVVRRHHHHHH
modifications: glycosylation on the S and T residues of the N-terminal sequence LVSTIESRTS (80% of the mature protein); heterogeneous post-translational modification, smear of 20-30 Kd
notes: also called Evasin-3-HIS; mature Evasin-3-HIS

Columns and labels:
[1] = molecular target: B3; assay: SPR (Biacore 3000), Evasin-3-6His immobilized on CM4 chip, chemokine injected
CXCL8/IL-8 [2] = molecular target: T1, CXCL8/IL-8 (UniProt P10145 28-99, limits assumed); assay: equilibrium competition receptor binding assay: inhibition of 0.1 nM 125I-IL-8 binding to CHO/CXCR1 cells
T1 construct: also called 125I-CXCL8/IL-8; 125I-IL-8
T1 sequence (looked up): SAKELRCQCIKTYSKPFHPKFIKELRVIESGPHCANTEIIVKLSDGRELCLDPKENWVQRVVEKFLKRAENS

IL-2 = molecular target: T2, IL-2 (UniProt P60568 21-153); assay: BS3 cross-linking of 125I-labelled protein to Evasin-3-6His, SDS-PAGE autoradiography (FIG. 7)
T2 construct: also called 125I-IL-2

CCL2/MCP-1 = molecular target: T3, CCL2/MCP-1 (UniProt P13500 24-99); assay: as above
T3 construct: also called 125I-MCP-1

CTACK/CCL27 = molecular target: T4, CTACK/CCL27 (UniProt Q9Y4X3 25-112); assay: as above
T4 construct: also called 125I-CCL27/CTACK
T4 sequence: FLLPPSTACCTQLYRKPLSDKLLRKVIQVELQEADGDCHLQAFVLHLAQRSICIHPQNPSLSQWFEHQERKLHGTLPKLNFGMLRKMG

CXCL10/IP-10 = molecular target: T5, CXCL10/IP-10 (UniProt P02778 22-98); assay: as above
T5 construct: also called 125I-CXCL10/IP-10
T5 sequence: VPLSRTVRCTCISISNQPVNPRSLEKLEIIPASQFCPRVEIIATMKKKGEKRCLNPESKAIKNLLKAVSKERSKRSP

IL-1α = molecular target: T6, IL-1α (UniProt P01583 113-271); assay: as above
T6 construct: also called 125I-IL-1
T6 sequence: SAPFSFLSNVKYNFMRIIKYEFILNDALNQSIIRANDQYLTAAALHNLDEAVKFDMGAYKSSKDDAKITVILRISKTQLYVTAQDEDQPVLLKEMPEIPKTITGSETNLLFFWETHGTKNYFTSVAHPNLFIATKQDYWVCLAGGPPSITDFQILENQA

CCL11/eotaxin = molecular target: T7, CCL11/eotaxin (UniProt P51671 24-97); assay: SPR (Biacore 3000), Evasin-3-6His immobilized on CM4 chip, chemokine injected
T7 construct: also called 125I-eotaxin

CX3CL1/Fractalkine = molecular target: T8, CX3CL1/Fractalkine (UniProt P78423 25-100); assay: as above
T8 sequence: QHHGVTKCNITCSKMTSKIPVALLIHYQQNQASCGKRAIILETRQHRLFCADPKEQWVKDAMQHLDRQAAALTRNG

CXCL12/SDF-1-alpha = molecular target: T9, CXCL12/SDF-1-alpha (UniProt P48061 22-89); assay: as above
T9 construct: also called SDF-1α

CXCL8/IL-8 [3] = molecular target: T1, CXCL8/IL-8; assay: cell-based or functional assay
CXCL1/Gro-alpha [4] = molecular target: T10, CXCL1/Gro-alpha (UniProt P09341 35-107); assay: cell-based or functional assay
T10 sequence: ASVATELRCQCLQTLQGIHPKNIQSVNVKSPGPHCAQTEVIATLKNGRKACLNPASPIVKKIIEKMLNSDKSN

CXCL8/IL-8 [5] = molecular target: T1, CXCL8/IL-8; assay: SPR (Biacore 3000), Evasin-3-6His immobilized on CM4 chip, Kd=kd/ka
CXCL1/Gro-alpha [6] = molecular target: T10, CXCL1/Gro-alpha; assay: as above
murine CXCL2/MIP-2 [7] = molecular target: T11, murine CXCL2/MIP-2 (murine, UniProt P10889 28-100); assay: as above
T11 sequence: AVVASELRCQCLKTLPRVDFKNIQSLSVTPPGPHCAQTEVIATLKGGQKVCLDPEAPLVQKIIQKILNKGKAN

murine CXCL1/KC [8] = molecular target: T12, murine CXCL1/KC (murine, UniProt P12850 25-96); assay: as above
T12 sequence: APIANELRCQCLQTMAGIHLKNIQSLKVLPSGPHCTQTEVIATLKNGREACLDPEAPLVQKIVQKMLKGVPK

CXCL8/IL-8 [9] = molecular target: T1, CXCL8/IL-8; assay: SPR (Biacore 3000), Evasin-3-6His immobilized on CM4 chip, chemokine injected, Langmuir global fit
CXCL1/Gro-alpha [10] = molecular target: T10, CXCL1/Gro-alpha; assay: as above
murine CXCL2/MIP-2 [11] = molecular target: T11, murine CXCL2/MIP-2; assay: as above
murine CXCL1/KC [12] = molecular target: T12, murine CXCL1/KC; assay: as above
[13] = molecular target: B3; assay: BS3 cross-linking of 125I-labelled protein to Evasin-3-6His, SDS-PAGE autoradiography (FIG. 7)
[14] = molecular target: B3; assay: competition for BS3 cross-linking of 125I-CXCL8/IL-8 to recombinant Evasin-3 in HEK293 supernatant, SDS-PAGE autoradiography

T2 sequence (P60568 21-153 limits assumed): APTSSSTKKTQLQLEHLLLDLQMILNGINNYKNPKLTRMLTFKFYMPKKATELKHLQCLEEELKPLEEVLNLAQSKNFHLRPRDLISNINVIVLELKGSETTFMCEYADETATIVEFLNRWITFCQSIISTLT
T3 sequence (P13500 24-99 limits assumed): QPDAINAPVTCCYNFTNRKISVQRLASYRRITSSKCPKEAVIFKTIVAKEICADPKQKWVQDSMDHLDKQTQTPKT
T7 sequence (P51671 24-97 limits assumed): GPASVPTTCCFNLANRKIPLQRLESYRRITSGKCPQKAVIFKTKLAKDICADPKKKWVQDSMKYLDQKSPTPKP
T9 sequence (P48061 22-89 limits assumed): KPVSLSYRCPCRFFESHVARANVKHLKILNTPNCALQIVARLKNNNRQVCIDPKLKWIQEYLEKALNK

B1: CCL4/MIP-1-beta (ligand)
chain: APMGSDPPTACCFSYTARKLPRNFVVDYYETSSLCSQPAVVFQTKRSKQVCADPSESWVQEYVYDLELN
notes: also called MIP-1β
B1: no binding (tested: 0.5 µg/ml chemokine) [1].

B2: CCL18/PARC (ligand)
chain: AQVGTNKELCCLVYTSWQIPQKFIVDYSETSPQCPKPGVILLTKRGRQICADPNKKWVQKYISDLKLNA
B2: no binding (tested: 0.5 µg/ml chemokine) [1].

For B3, the IC50 (CXCL8/IL-8 [2]) was 1 nM, the binding result (IL-2) was “no binding (tested: 0.23 nM 125I-labelled protein)” and the binding result (CCL2/MCP-1) was “no binding (tested: 0.23 nM 125I-labelled protein)”. B3: no binding (tested: 0.23 nM 125I-labelled protein) (CTACK/CCL27); no binding (tested: 0.23 nM 125I-labelled protein) (CXCL10/IP-10); no binding (tested: 0.23 nM 125I-labelled protein) (IL-1α). B3: no binding (tested: 0.5 µg/ml chemokine) (CCL11/eotaxin); no binding (tested: 0.5 µg/ml chemokine) (CX3CL1/Fractalkine); no binding (tested: 0.5 µg/ml chemokine) (CXCL12/SDF-1-alpha). The “IC50 of inhibition of IL-8 induced chemotaxis of human neutrophils” value (CXCL8/IL-8 [3]) was 16 nM, the “IC50 of inhibition of Gro-alpha induced chemotaxis of human neutrophils” value (CXCL1/Gro-alpha [4]) was 20 nM and the Kd (CXCL8/IL-8 [5]) was 0.22 nM. The Kd (CXCL1/Gro-alpha [6]) was 0.45 nM, the Kd (murine CXCL2/MIP-2 [7]) was 0.18 nM and the Kd (murine CXCL1/KC [8]) was 5.34 nM. The koff (CXCL8/IL-8 [9]) was 0.000178 s⁻¹, the kon (CXCL8/IL-8 [9]) was 826000 M⁻¹ s⁻¹ and the koff (CXCL1/Gro-alpha [10]) was 0.00117 s⁻¹. For the same binder, the kon (CXCL1/Gro-alpha [10]) was 2.6e+06 M⁻¹ s⁻¹, the koff (murine CXCL2/MIP-2 [11]) was 0.000255 s⁻¹ and the kon (murine CXCL2/MIP-2 [11]) was 1.43e+06 M⁻¹ s⁻¹. For the same binder, the koff (murine CXCL1/KC [12]) was 0.0012 s⁻¹ and the kon (murine CXCL1/KC [12]) was 225000 M⁻¹ s⁻¹.

B4: CCL5/RANTES (ligand)
chain: SPYSSDTTPCCFAYIARPLPRAHIKEYFYTSGKCSNPAVVFVTRKNRQVCANPEKKWVREYINSLEMS
notes: also called 125I-CCL5/RANTES
B4: no binding (tested: 0.23 nM 125I-labelled protein) [13].

B5: CCL3/MIP-1-alpha (ligand)
chain: SLAADTPTACCFSYTSRQIPQNFIADYFETSSQCSKPGVIFLTKRSRQVCADPSEEWVQKYVSDLELSA
notes: also called MIP-1α
B5: no binding (tested: 1 µg unlabelled (500 fold excess)) [14].

B6: TARC/CCL17 (ligand)
chain: ARGTNVGRECCLEYFKGAIPLRKLKTWYQTSEDCSRDAIVFVTVQGRAICSDPNNKRVKNAVKYLQSLERS
notes: also called 125I-CCL17/TARC
B6: no binding (tested: 0.23 nM 125I-labelled protein) [13].
